Assay: Intravital fluorescence imaging of BSA-AF release in the knee joint after intra-articular injection
Format: in vivo
Conditions: total radiant efficiency from knee joint, released from HA-g-PNIPAm hydrogels

Alexa Fluor 680 conjugated BSA: Alexa Fluor 680 conjugated BSA released from HA-g-PNIPAm hydrogels
time detected in the knee joints: more than 24 hours | time of maximum concentration post intra-articular injection (n=4): 6 to 12 h

— US12458703B2, “Responsive elastic polymers and methods of making and using same” (Purdue Research Foundation, priority 2016, dated 2025)
